Assay results published in paper PMC9359175.

How the values were obtained:
[1] = molecular target: 5HB-H2 (SARS-CoV-2 5-helix bundle, optimal construct) (SARS-CoV-2) (UniProt P0DTC2); test: BLI; […]; 20 mM MES pH 6.0, 150 mM NaCl, 0.05% Tween 20, 298 K; 1:1 model
[2] = molecular target: 5HB-H2 (SARS-CoV-2 5-helix bundle, optimal construct) (SARS-CoV-2) (UniProt P0DTC2); test: ITC; […]; 298 K; 20 mM HEPES pH 7.5, 150 mM NaCl; […]
[3] = molecular target: 5HB-H2 (SARS-CoV-2 5-helix bundle, optimal construct) (SARS-CoV-2) (UniProt P0DTC2); test: BLI; pH 4.5
[4] = molecular target: 5HB-H2 (SARS-CoV-2 5-helix bundle, optimal construct) (SARS-CoV-2) (UniProt P0DTC2); test: BLI; […]; 20 mM MES pH 5.5, 150 mM NaCl, 0.05% Tween 20, 298 K; 1:1 model
[5] = molecular target: 5HB-H2 (SARS-CoV-2 5-helix bundle, optimal construct) (SARS-CoV-2) (UniProt P0DTC2); test: crystal structure
[6] = molecular target: 5HB-H2 (SARS-CoV-2 5-helix bundle, optimal construct) (SARS-CoV-2) (UniProt P0DTC2); test: BLI; […]; 20 mM HEPES pH 7.5, 150 mM NaCl, 0.05% Tween 20, 298 K; 1:1 model
[7] = molecular target: 5HB-H2 (SARS-CoV-2 5-helix bundle, optimal construct) (SARS-CoV-2) (UniProt P0DTC2); test: BLI; pH 5

Work on “HR2P, 36-mer peptide derived from SARS-CoV-2 S HR2 (D1168-L1203)” yielded a Kd [1] of 3.22 nM, a Kd [2] of 5.12 nM and a Kd [3] of 1.37 nM. The Kd [4] was 3.08 nM, the stoichiometry N [5] was 1 and the Kd [6] was 4.91 nM. The Kd [7] was 2.43 nM.
